Measured values reported in US11466260B2, “Thermostable haloarchaeal inorganic pyrophosphatase” (UNIVERSITY OF FLORIDA RESEARCH FOUNDATION, INCORPORATED, priority 2015, dated 2022).
Entries after “also recorded” stand apart in the source; their conditions may differ. Read-outs that look alike come from different tables or passages of the source.

Key:
HvPPA = molecular target: T1, HvPPA (Haloferax volcanii, UniProt D4GT97); experiment: Sodium fluoride-based inhibition of HvPPA; assay type: biochemical
T1 construct: thrombin-cleavage site (linker between His6 and HvPPA) (N); made in house; host or cells: Haloferax volcanii H26-pJAM2920
T1 sequence (D4GT97 1-177): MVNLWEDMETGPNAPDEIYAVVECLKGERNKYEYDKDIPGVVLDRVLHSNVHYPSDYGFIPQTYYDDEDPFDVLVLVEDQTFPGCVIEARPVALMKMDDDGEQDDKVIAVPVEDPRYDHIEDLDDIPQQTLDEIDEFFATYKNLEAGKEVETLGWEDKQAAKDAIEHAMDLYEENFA
Experimental: A) HvPPA (1.3 μg) was assayed in 1 ml reaction volume containing 1 mM PPi, 10 mM MgCl2, 3 M NaCl and 20 mM Tris-Cl buffer pH 7.5 supplemented with NaF as indicated. Reactions were monitored for 15 min at RT.
HvPPA-mediated hydrolysis of PPi to Pi was determined spectrophotometrically. Reagents were in nanopure water (Barnstead/Thermolyne Nanopure lab water system). Sodium pyrophosphate tetrabasic decahydrate (Sigma Aldrich) was used as a substrate. For kinetic measurements, reaction mixtures (500 μl total) contained 0.5-1 μg HvPPA and 1 mM PPi in high-salt buffer (3 M NaCl and 20 mM Tris-HCl, pH 8.5). Reactions were incubated at 42° C. for 1-3 min. Orthophosphate levels were determined by malachite green assay. Briefly, 2.5 ml of 14% (w/v) (NH4)2MoO4 and 0.2 ml of 11% (v/v) TWEEN 20 ® (Polyoxyethylene sorbitan monolaurate) were added into a 10-ml color reagent I (containing 1.67 ml conc. sulfuric acid, 8.33 ml nanopure H2O, and 12.22 mg malachite green). In triplicate, 50 μl of the color reagent was mixed with 200 μl of the reaction mixture and incubated at room temperature for 10 min. The formation of (MG^+)(H2PMo12O40) (where MG^+ represents ionized malachite green) was monitored at A630. A less sensitive malachite green assay was also used in which reaction aliquots (50 μl) were mixed with 250 μl color reagent II and 10 μl 1.5% (v/v) TWEEN 20 ® (Polyoxyethylene sorbitan monolaurate) in triplicate; product formation was immediately monitored at A650. Color reagent II was generated by mixing 1 volume of 4.2% (w/v) (NH4)2MoO4 in 5 N HCl with 3 volumes of 0.2% (w/v) malachite green; after 30 minutes, the solution was filtered with a 0.45 μm filter and stored at room temperature. Freeze-dried KH2PO4 was used as the standard. Assay mixtures with PPi minus HvPPA were used for individual background subtraction. All proteins used in this assay were buffer-exchanged with Tris-high-salt buffer in nanopure H2O prior to use. All experiments were performed in triplicate and the mean±standard deviation (S.D.) was calculated.

[1] = cited from earlier work; for Vmax: highest reported
[2] = assay type: physicochemical, Haloferax volcanii
Experimental: (§1) FIGS. 6A-6D. Effect of salt, solvent and temperature on Haloferax volcanii inorganic phyrophosphatase (HvPPA). A) HvPPA thermostability. HvPPA was incubated at 42° C. and 65° C. as indicated with enzyme at 0.093 mg/ml of buffer (20 mM Tris-Cl pH 8, 2.5 mM MgCl2 and 3 M NaCl). HvPPA was diluted to 0.28 μg per 100 μl buffer (with MgCl2 increased to 10 mM) and assayed by addition of 1 mM PPi substrate (10 min, RT). Activity is % relative to samples incubated on ice. B) HvPPA stability in 50% (v/v) solvent. HvPPA was incubated for 2 h (on ice) at 0.47 mg/ml buffer (20 mM Tris-Cl pH 8 and 2 M NaCl) supplemented with solvent as indicated. HvPPA was diluted to 2.4 μg per 100 μl buffer (20 mM Tris-Cl pH 8, 2.5 mM MgCl2 and 2 M NaCl) and assayed by addition of 50 μM PPi substrate (10 min, RT). Activity is % relative to samples incubated with no solvent. C) HvPPA activity in 25% (v/v) solvent. Reactions were 500 μl with 2.8 μg HvPPA, 1.5 M NaCl, 1.5 mM PPi, 10 mM MgCl2. Reaction occurred at 10 minutes at RT. D) HvPPA stability in salt. HvPPA was incubated for 2 h (on ice) at 0.3 mg per ml of buffer (20 mM Tris-Cl pH 8) supplemented with NaCl at the concentrations indicated. HvPPA was diluted to 0.87 μg per 100 μl reaction buffer as in FIG. 6B. Activity is % relative to samples incubated in buffer supplemented with 3M NaCl.

[3] = PPi assay: HvPPA-mediated hydrolysis of PPi to Pi (malachite green); assay type: biochemical, Haloferax volcanii; conditions: for Temp., optimum: 20 mM Tris-Cl pH 8, 3 M NaCl; for Cation-dependence: EDTA-treated enzyme, 20 mM Tris-Cl pH 8, 2 M NaCl
Experimental: FIGS. 4A-4D. Effect of pH, temperature, salt and divalent cations on Haloferax volcanii inorganic phyrophosphatase (HvPPA) activity. A-C) HvPPA was equilibrated for 10 min at the pH, temperature, and NaCl concentrations indicated prior to the addition of PPi substrate (100 μM). MgCl2 (10 mM) was included in the activity assays. For pH optimum, assays were supplemented with 3 M NaCl and included 20 mM buffers of sodium acetate at pH 4-5, MES at pH 6-6.5, Tris-Cl at pH 7-9 and CAPS at pH 10. For temperature optimum assays, reactions were in 20 mM Tris-Cl pH 8 supplemented with 3 M NaCl. For salt optimum, HvPPA was diluted from 20 mM Tris-Cl pH 8 containing 3 m NaCl into the same buffer with NaCl concentrations as indicated. D) To test the influence of cations, HvPPA was dialyzed sequentially against 500 ml of buffer (20 mM Tris-Cl pH 8, 2 M NaCl and 1 μM EDTA) (4 h at 4° C.) and the same buffer with EDTA omitted (4 h at 4° C.). Reactions for panel D contained HvPPA (0.93 μg), 20 mM Tris-Cl pH 8, 2 M NaCl and divalent metal at the concentration indicated. Metals used were: CaCl2.2H2O, ZnCl2, CoCl2.6H2O, MnCl2.4H2O, NiCl2.6H2O and MgCl2.6H2O. Reactions were monitored for 10 min at RT unless otherwise indicated.
as §1
PPA activity monitored in Tris-salt buffer at 37° C. and pH 8.5 with 0.1 mM PPi for 10 min. U, units defined as μmol product/min. SD, standard deviation of three experiments.
HvPPA-mediated hydrolysis of PPi to Pi was determined spectrophotometrically. Reagents were in nanopure water (Barnstead/Thermolyne Nanopure lab water system). Sodium pyrophosphate tetrabasic decahydrate (Sigma Aldrich) was used as a substrate. For kinetic measurements, reaction mixtures (500 μl total) contained 0.5-1 μg HvPPA and 1 mM PPi in high-salt buffer (3 M NaCl and 20 mM Tris-HCl, pH 8.5). Reactions were incubated at 42° C. for 1-3 min. Orthophosphate levels were determined by malachite green assay. Briefly, 2.5 ml of 14% (w/v) (NH4)2MoO4 and 0.2 ml of 11% (v/v) TWEEN 20 ® (Polyoxyethylene sorbitan monolaurate) were added into a 10-ml color reagent I (containing 1.67 ml conc. sulfuric acid, 8.33 ml nanopure H2O, and 12.22 mg malachite green). In triplicate, 50 μl of the color reagent was mixed with 200 μl of the reaction mixture and incubated at room temperature for 10 min. The formation of (MG^+)(H2PMo12O40) (where MG^+ represents ionized malachite green) was monitored at A630. A less sensitive malachite green assay was also used in which reaction aliquots (50 μl) were mixed with 250 μl color reagent II and 10 μl 1.5% (v/v) TWEEN 20 ® (Polyoxyethylene sorbitan monolaurate) in triplicate; product formation was immediately monitored at A650. […]

[4] = as above; assay type: biochemical, Haloferax volcanii; conditions: 25° C.
[5] = Coupled assay of ubiquitin-like protein adenylation; assay type: biochemical, Haloferax volcanii; conditions: UbaA and HvPPA with ATP and SAMP1, 2 M NaCl, 42° C.
Experimental: FIGS. 7A-7B. on Haloferax volcanii inorganic phyrophosphatase (HvPPA) activity solvent and coupled adenylation assay at high temperature and low water activity. A) Schematic of the coupled assay. Adenylation of the ubiquitin-like SAMP by the E1-like enzyme (UbaA) was monitored by HvPPA mediated hydrolysis of the PPi (P2O7^4−) by-product to 2 Pi (2 moles HPO4^2−) at 50° C. B) Generation of Pi correlated with the addition of ATP, UbaA, HvPPA and SAMP1 to the assay buffer. ΔGG, C-terminal diglycine residue deletion.
UbaA-mediated hydrolysis of ATP to AMP and PPi in the presence of the ubiquitin-like SAMP1 was monitored by coupled assay with HvPPA. Proteins were buffer-exchanged with HEPES-salt buffer in Nanopure H2O prior to use. Reaction mixtures (500 μl total) containing 20 μM UbaA, 20 μM SAMP1, 0.5 μM HvPPA, 2.5 mM nucleotide, 2.5 mM MgCl2, 50 μM ZnCl2 in high-salt buffer (2 M NaCl and 50 mM HEPES in Nanopure H2O, pH 7.5) were incubated at 37-42° C. for 1 h. Nucleotides were ATP, AMP, ADP, AMP-PNP, CTP, GTP, TTP and UTP. Proteins were removed by Ultracel-3 centrifugal filtration prior to determining orthophosphate levels by malachite green assay modified as described above. Assay mixtures with nucleotide alone were used for individual background subtraction.

Molecule: F [NaF, sodium fluoride]
- Ki (HvPPA; pH 7.5): 200 µM
- Ki (HvPPA; pH 8.5): 1800 µM

B1: Methanothermobacter thermautotrophicus: Class A type inorganic pyrophosphatase of Methanothermobacter thermautotrophicus (Methanobacterium thermoautotrophicum) (protein, UniProt O26363 1-176, looked up)
Inorganic pyrophosphatase: MNLWKDIEPGPSVPEVVYAVVEIPKGSRNKYEYHKDLQAFALDRVLYSAVFYPAEYGIIPRTLYDDGDPMDILVLMDEPTFPGCIIESRPIGLLRMIDGGDQDDKILAVPVADPHFADVKDISDIPEHNLKEIANFFETYKKLEGKKTETLGWEGAEKAFEAVNHSIELYRKKYME
- pH, optimum ([1]; 60° C.): pH 7.7 (60° C.)
- Hill coefficient(s) (Mg^2+) [1]: 2.0 (Mg^2+)
- Hill coefficient(s) (PPi) ([1]; PPi): 3.3 (PPi),
- Km ([1]; for Mg^2+, read-out: Km Mg^2+): 4900 µM
- Km ([1]; for PPi, read-out: Km PPi): 160 µM
- Vmax [1]: 570 U · mg^−1

B2: Pyrococcus horikoshii: Class A type inorganic pyrophosphatase of Pyrococcus horikoshii (protein, UniProt O59570 1-178, looked up)
Inorganic pyrophosphatase: MNPFHDLEPGPNVPEVVYALIEIPKGSRNKYELDKETGLLKLDRVLYTPFHYPVDYGIIPRTWYEDGDPFDIMVIMREPTYPLTIIEARPIGLFKMIDSGDKDYKVLAVPVEDPYFKDWKDISDVPKAFLDEIAHFFKRYKELEGKEIIVEGWEGAEAAKREILRAIEMYKEKFGKKE
- Vmax ([1]; 60° C.): 930 U · mg^−1
- Km ([1]; for Mg^2+, read-out: Km Mg^2+): 300 µM
- Hill coefficient(s) ([1]; in words): Cooperative
- Substrate(s) hydrolyzed: ADP ([1]; substrate ADP): (2.9%)]
- Substrate(s) hydrolyzed: ATP ([1]; substrate ATP): ATP (5.9%); ADP
- Substrate(s) hydrolyzed: P3 ([1]; substrate P3): 2.7%

B3: HvPPA: Class A type inorganic pyrophosphatase from Haloferax volcanii, amino acid sequence of SEQ ID NO: 2 (protein, listed as Haloferax volcanii)
chain: T1 sequence (D4GT97 1-177)
- stability when stored in salt [2]: more stable
- activity remained ([2]; after 2 h at 42° C., relative to samples on ice): 82%
- Thermal inactivation (half-life) ([2]; buffer, pH 8): 2 h
- Substrate(s) hydrolyzed [3]: PPi
- hydrolysis of nucleoside triphosphate (ATP, TTP, GTP or CTP) or nucleoside diphosphate (ADP) [3]: did not hydrolyze detectable levels
- kcat [3]: 1050 s⁻¹
- activity of restored EDTA-treated enzyme versus untreated control ([3]; 2.5 mM MgCl2): half the activity of the untreated control
- Temp., optimum [3]: 42 °C
- Temp., optimum ([3]; listed as HvPPA hexamers): 42 °C
- effect of NaCl on relative activity ([3]; 0.025 to 3 M NaCl): little, if any, effect; also recorded: fully active
- optimal activity, basic pH ([3]; 3 M NaCl, 10 mM MgCl2, 100 μM PPi, RT): 8-9 pH
- activity in organic solvent compared to no solvent controls ([3]; 25% (v/v) DMSO or DMF): 63-94%
- activity in organic solvent compared to no solvent controls ([3]; 25% (v/v) methanol or ethanol): 110-150%
- pH, optimum ([3]; 25° C.): pH 8.5 (25° C.)
- Vmax ([3]; 25° C., PPi substrate): 53 U/mg
- Vmax ([3]; 42° C.): 465 U · mg^−1
- Vmax ([3]; 42° C., PPi substrate): 465 U/mg
- Cation-dependence [3]: partially restored by supplementation of the enzyme with Mn^2+ or Mg^2+ ions
- Cation-dependence ([3]; listed as Haloferax volcanii): Mg^2+, Mn^2+
- Mg^2+ concentration for optimal PPi hydrolyzing activity ([3]; Mg^2+ added to reaction buffer): 20 to 40 mM
- Hill coefficient(s) (Mg^2+) ([3]; Mg^2+, 25° C.): 2.6 (Mg^2+, 25° C.)
- Hill coefficient(s) (PPi) ([3]; PPi, 42° C.): 2.1 (PPi, 42° C.)
- effect of removal of divalent cations ([3]; dialysis against the metal chelator EDTA): inactivated
- Km ([3]; for Mg^2+, 25° C., listed as Haloferax volcanii, read-out: Km Mg^2+): 13400 µM
- Km ([3]; for Mg^2+, 25° C., read-out: Km Mg^2+): 13000 µM
- Km ([3]; for PPi, 25° C., read-out: Km PPi): 260 µM
- Km ([3]; for PPi, 42° C., read-out: Km PPi): 550 µM
- Vmax [4]: 53 U · mg^−1 (25° C.)
- Hill coefficient(s) (Mg^2+) ([4]; Mg^2+): 2.62
- Hill coefficient(s) (PPi) ([4]; PPi): 1.4 (PPi, 25° C.)
- Inhibitors (HvPPA): NaF
- Pi detected in coupled adenylation assay [5]: Significant levels of Pi were detected

B4: Thermoplasma acidophilum: Class A type inorganic pyrophosphatase of Thermoplasma acidophilum (protein, UniProt P37981 1-179, looked up)
Inorganic pyrophosphatase: MESFYHSVPVGPKPPEEVYVIVEIPRGSRVKYEIAKDFPGMLVDRVLYSSVVYPVDYGLIPRTLYYDGDPMDVMVLISQPTFPGAIMKVRPIGMMKMVDQGETDNKILAVFDKDPNVSYIKDLKDVNAHLLDEIANFFSTYKILEKKETKVLGWEGKEAALKEIEVSIKMYEEKYGKKN
- Vmax ([1]; 56° C.): 1100 U · mg^−1
- Hill coefficient(s) (Mg^2+) [1]: 1.8 (Mg^2+)
- Km ([1]; for Mg^2+, read-out: Km Mg^2+): 1700 µM
- Km ([1]; for PPi, read-out: Km PPi): 7 µM
